From paper PMC10606890, “Studying the Association of TKS4 and CD2AP Scaffold Proteins and Their Implications in the Partial Epithelial–Mesenchymal Transition (EMT) Process” (International Journal of Molecular Sciences, 2023)

Molecular target: T1, Myc-DDK-tagged human CD2-associated protein (human, UniProt Q9Y5K6 1-639)
T1 construct: human CD2-associated protein (CD2AP), full-length protein; also called Myc-tagged CD2AP; Myc-CD2AP recombinant protein; source: bought: Origene Technologies (RC210191), recombinant protein
T1 sequence (Q9Y5K6 whole entry): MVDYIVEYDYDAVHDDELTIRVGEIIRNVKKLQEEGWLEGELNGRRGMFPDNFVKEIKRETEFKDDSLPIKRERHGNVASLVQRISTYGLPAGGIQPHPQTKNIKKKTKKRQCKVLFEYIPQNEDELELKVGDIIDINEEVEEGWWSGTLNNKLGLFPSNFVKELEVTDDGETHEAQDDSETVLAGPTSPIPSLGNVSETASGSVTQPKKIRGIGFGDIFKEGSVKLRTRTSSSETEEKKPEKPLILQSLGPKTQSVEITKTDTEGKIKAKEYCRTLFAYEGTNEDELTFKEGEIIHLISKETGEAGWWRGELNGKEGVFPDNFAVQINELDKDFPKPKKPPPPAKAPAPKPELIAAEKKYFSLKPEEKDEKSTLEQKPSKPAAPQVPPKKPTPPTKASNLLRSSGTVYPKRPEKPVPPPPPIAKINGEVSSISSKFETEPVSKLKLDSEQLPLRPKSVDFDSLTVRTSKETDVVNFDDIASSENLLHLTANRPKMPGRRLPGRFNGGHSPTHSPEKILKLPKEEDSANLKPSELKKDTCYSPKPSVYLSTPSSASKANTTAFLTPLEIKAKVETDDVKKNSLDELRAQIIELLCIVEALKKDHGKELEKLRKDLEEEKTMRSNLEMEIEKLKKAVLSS
Assay: peptide or protein array; PepStar microarray of 225 TKS4 15-mers (11 overlapping residues) on a glass slide, three subarrays; recombinant Myc-CD2AP incubated 1 h at 30 °C in SmartBlock solution, TBS washes, detected with Alexa Fluor 488 anti-Myc-tag antibody; threshold 10,000 U
Details: both partners purified

binding result	Binder
binds	EAPQQRPVVPPRRPP (peptide, UniProt A1X283 749-763, looked up, contains the motif 755-PVVPPR-760; source: synthetic peptide printed on a glass slide; bought: JPT Peptide Technologies (PepStar microarray)) [TKS4 peptide 188 (15-mer of the PepStar peptide microarray)]
binds	QRPVVPPRRPPPPKK (peptide, UniProt A1X283 753-767, looked up, contains the motif 755-PVVPPR-760; source: synthetic peptide printed on a glass slide; bought: JPT Peptide Technologies (PepStar microarray)) [TKS4 peptide 189 (15-mer of the PepStar peptide microarray)]
